Experimental findings from paper PMC8837534, “CD147 supports paclitaxel resistance via interacting with RanBP1” (Oncogene, 2022) are described below.

Usually Kd stands for a measure of binding affinity in units of concentration.

The assay has as its target T1, RanBP1 protein (full-length, recombinant) (UniProt P43487 1-201).
T1 construct: pMAL-c5x vector; that this removed MBP is inferred; source: E. coli BL21 (DE3), purified (MBPTrap HP, thrombin digestion, Superdex 75); not shown: MBP, N-terminal, cleaved
In words: SPR; ProteOn XPR36, One-shot Kinetics; concentration series of CD147^ICD injected over the immobilized ligand in TBS-T, 50 μL/min for 3 min, dissociation 12 min; constants by ProteOn Manager Software. Conditions: both partners purified.

T1 sequence (P43487 whole entry): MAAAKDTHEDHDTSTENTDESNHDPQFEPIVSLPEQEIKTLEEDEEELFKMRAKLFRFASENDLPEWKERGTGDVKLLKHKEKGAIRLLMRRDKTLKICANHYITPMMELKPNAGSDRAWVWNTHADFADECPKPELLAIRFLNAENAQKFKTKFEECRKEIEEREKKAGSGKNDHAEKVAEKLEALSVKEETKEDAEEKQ

B1: His6-tagged CD147^ICD (intracellular domain of CD147, residues 231-269) (domain or fragment, UniProt P35613-2 231-269, looked up)
chain: KRRKPEDVLDDDDAGSAPLKSSGQHQNDKGKNVRQRNSS
notes: CD147 (basigin), intracellular domain, residues 231-269; One preparation is described (pET21a, 'SUMO-His tag at the C-terminus', SUMO removed by Ulp1); The pull-down names the bait as His6-tagged; source: E. coli BL21 (DE3), purified (HisTrap HP, Ulp1 digestion, Superdex 75); not shown: SUMO, C-terminal, cleaved; His6, C-terminal, kept
Take B1: the Kd is 2250 nM.
